One substance from EP2404612A1, “Diagnosis, prophylaxis and therapy of Alzheimer's disease and other neurodementing disorders” (Balakrishnan, Karthikeyan, priority 2010, dated 2012) can be followed below.

The data set is described as follows: CD spectra analysis of ß-sheet conformation. Type of data set: physicochemical. The following applies: 62.5 µM in sodium carbonate (0.05 mM)/ SDS (37.5 mM) buffer, 20°C, instantly after resuspending in buffer. How it is done: To compare the ß-sheets formed by the wild type and the mutated trimer, respectively, CD spectra analysis was performed. Both peptides were measured at a concentration of 62.5 µM in sodium carbonate (0.05 mM)/ SDS (37.5 mM) buffer with a JASCO J-810 spectroplarimeter (JASCO, Easton, MD, USA). Far-UV CD spectra (190-260 nm) were recorded at 20°C using a quartz cuvette with an optical path length of 1 mm. The scanning speed was set at 20 nm/min with a response time 4 second and bandwidth 2 nm.

As for “wild type Aβ: wild type Aβ peptide compared with mutated Aβ (1-40; G29Ile,G33Ile) in CD spectra; length not stated”, the ß-sheet worked out at 1%.
